First the molecules themselves.
T1: Ang2 (UniProt O15123 19-496)
T1 chain: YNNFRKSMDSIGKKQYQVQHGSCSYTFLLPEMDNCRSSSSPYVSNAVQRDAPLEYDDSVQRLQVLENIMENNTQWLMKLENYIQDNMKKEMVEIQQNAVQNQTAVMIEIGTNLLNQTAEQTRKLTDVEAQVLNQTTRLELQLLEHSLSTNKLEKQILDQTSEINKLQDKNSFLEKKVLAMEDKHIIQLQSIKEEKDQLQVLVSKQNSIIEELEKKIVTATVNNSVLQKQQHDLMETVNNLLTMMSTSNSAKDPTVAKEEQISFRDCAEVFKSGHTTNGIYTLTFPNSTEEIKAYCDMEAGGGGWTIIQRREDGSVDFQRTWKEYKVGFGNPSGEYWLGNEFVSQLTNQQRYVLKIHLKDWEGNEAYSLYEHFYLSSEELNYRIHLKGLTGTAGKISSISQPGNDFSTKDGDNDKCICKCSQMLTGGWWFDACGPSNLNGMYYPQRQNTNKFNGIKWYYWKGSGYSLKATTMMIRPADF

Data on eight molecules can be found in patent US20180072783A1 (published 2018).

The assay addresses T1, Ang2. As to the kind of experiment: direct binding ELISA; MBP fusion. (In general: An ELISA detects its analyte on a solid surface through an enzyme-linked reagent.)
As usually defined, the EC50 is the concentration at which the effect is half-maximal. Molecule KSLSLSPGGNGTTNFMPMDQDEALLYEEFI [L1-7D MSD (7B2)] registered an EC50 of 1.38 nM.
For the molecule AQTNFMPMDNDEALLYEEFI [L1-7D MHD (3C3)], the EC50 amounted to 17 nM. This EC50 lies about 12-fold higher than the previous one.
For the molecule AQTNFMPMDQDEALLYEEFIC [L1-7D MAD (6A3)], the EC50 is > 100 nM.
On to AQTNFMPMDDDELLLYEQFIL [L1-7D MKD (5A8)], for which the EC50 was > 100 nM.
As for AQTNFMPMDNDEALLYEQFI [L1-7D MQD (1A12)], the EC50 is > 100 nM.
On to AQTNFMPMDNDEGLLYEQFI [L1-7D MDD (ZC12)], for which the EC50 was 0.153 nM.
For AQTNFMPMDNDEGLLYEEFI [L1-7D MVD (2A1)], the EC50 was > 100 nM.
Take AQTNFMPMDQDELLLYEQFI [L1-7D MND (4H4)]: it took 0.411 nM to reach a half-maximal effect (EC50).
